Like-named read-outs stand apart in the source and are kept apart here.
How the values were obtained:
Assay in all cases: crystal structure
crystal structure [1] = target: the molecule itself
crystal structure [2] = target: the molecule itself; remark: listed apart in the source
crystal structure [3] = target: the molecule itself; remark: listed apart in the source
crystal structure [4] = target: the molecule itself; remark: listed apart in the source

B1: S-adenosyl-L-homocysteine hydrolase from Pyrococcus furiosus (enzyme)
chain: MDCGKDYCVKDLSLAEEGWKKIDWVSRFMPVLQYIKREFEEKKPFKGVRIAATLHLEMKTAFLLLTLKAGGAEVSAAASNPLSTQDDVVAALAKAGVKVYAIRGESREQYYEFMHKALDIRPNIIIDDGADMISLVHKERQEMLDEIWGGSEETTTGVIRLRAMEKAGILKFPVIAVNDSYMKYLFDNRYGTGQSTWDGIMRATNLLIAGKNVVVVGYGWCGRGIAMRARGLGATVIVVEVDPIKALEARMDGFLVMDMKEAAKIGDIFVTATGNIKCIRREHFELMKDGAIMANAGHFDVEIWKPDLEKLAVEINNPRPNVTEYKLKDGRRLYLLADGRLVNLVAADGHPAEIMDMSFALQAKAAEYIKDNHERLEPKVYILPREIDEMVARIKLESMGIKIEELTEEQKKYLESWEHGT
stoichiometry N (crystal structure [1]): 4

B2: S-adenosyl-L-homocysteine hydrolase from Methanococcus maripaludis (enzyme)
chain: MSNVKDMSLAPSGHLKMEWAKRHMPVLCRIAEEFKNDKPFEGLTIGMALHLEAKTAILAETLLEGGAKIVITGCNPLSTQDDVAAACVEKGMEVYAWRGETNEEYYENLNKVLDSNPDIIIDDGADLIFLIHTERTELIGKIMGGCEETTTGIIRLKSMAEEGALKFPVVNVNDAYTKHLFDNRYGTGQSAMDGIIRTTNLLIAGKNVVVGGYGWCGRGVASRAAGHGANVIITEVNPIRALEAKMDGFTVLKMEEAAKIGDIFVTTTGCKDILRMEHFLLMKDGAVLSNAGHFDNEINKNDLKELSKSVKEARFNIEEYDLGNKKIYLLGEGRLVNLACADGHPCEVMDMSFANQALSAKFIKENKGKLENEVYEIPYEQDFKIALLKLHSMGADIDELSPEQRKYLSDWKEGT
stoichiometry N (crystal structure [2]): 4

B3: S-adenosyl-L-homocysteine hydrolase from Sulfolobus acidocaldarius (enzyme)
chain: MDYRVKDLSLAEQGRKQIEWAELHMPALMEIRKRFNAEKPLDGIRIGAVLHVTKETAVLVETLKAGGAEIALAGSNPLSTQDDVAAGLAKNGIHVYAWRGETEKDYYDNIREILKYEPHVIMDDGGDLHAYVHENNLTSKIVGGTEETTTGVIRLKAMEEEKVLKYPVIAVNNAFTKYLFDNRIGTGQSTIDGILRATNILIAGKVAVVIGYGWVGRGIASRFKGMGARVIVVESSPFRALEALMDGFDVMTMNRASEIGDIFVTATGNLNVVSRDHILRMKDGAVLANSGHFNVEIDVKGLKEISVETREVRQNLEEYKLRNGKRIYLLADGRLVNLVAAEGHPSEVMDLSFCNQALSVEHLIKNKGKLENKVYNVPIEIDEQVARLKLKALGIEIEELTIEQKEYIKQWKYGT
stoichiometry N (crystal structure [3]): 4

B4: S-adenosyl-L-homocysteine hydrolase from Mus musculus (enzyme)
chain: MSDKLPYKVADIGLAAWGRKALDIAENEMPGLMRMREMYSASKPLKGARIAGCLHMTVETAVLIETLVALGAEVRWSSCNIFSTQDHAAAAIAKAGIPVFAWKGETDEEYLWCIEQTLHFKDGPLNMILDDGGDLTNLIHTKYPQLLSGIRGISEETTTGVHNLYKMMSNGILKVPAINVNDSVTKSKFDNLYGCRESLIDGIKRATDVMIAGKVAVVAGYGDVGKGCAQALRGFGARVIITEIDPINALQAAMEGYEVTTMDEACKEGNIFVTTTGCVDIILGRHFEQMKDDAIVCNIGHFDVEIDVKWLNENAVEKVNIKPQVDRYWLKNGRRIILLAEGRLVNLGCAMGHPSFVMSNSFTNQVMAQIELWTHPDKYPVGVHFLPKKLDEAVAEAHLGKLNVKLTKLTEKQAQYLGMPINGPFKPDHYRY
binding result (crystal structure [4]): binds
